According to IntAct's records for PubMed 31515488:

B1: U3 small nucleolar RNA-associated protein 14 homolog C (Homo sapiens), Q5TAP6 (parent)
chain: MNVNQVAENLALSHQEELVDLPKNYPLSENEDEGDSDGERKHQKLLEAIISLDGKNRRKLAERSEASLKVSEFSVSSEGSGEKLGLADLLEPVKTSSSLATVKKQLNRVKSKKVVELPLNKEKIEQIHREVAFSKTSQVLSKWDPIILKNQQAEQLVFPLGKEQPAIAPIEHALSGWKARTPLEQEIFNLLHKNKQPVTDPLLTPMEKASLQAMSLEEAKMHRAELQRARALQSYYEAKARKEKKIKSKKYHKVVKKGKAKKALKEFEQLQKVNPTVALEEMEKIENARMMERMSLKHQNSGKWAKSKAIMAKYDLEARQAMQEQLAKNKELTQKLQVASESEEEEGGTEVEELLVPHVANEVQMNVDGPNPWMFRSCTSDTKEAATQEDPEQVPELAAHEVSASEAEERPVAEEEILLREFEERQSLRKRSELNQDAEPASSQETKDSSSQEVLSELRALSQKLKEKHQSRKQKASSEGTVPQVQREEPAPEEAEPLLLQRSERVQTLEELEELGKEDCFQNKELPRPVLEGQQSERTPNNRPDAPKEKKEKEQLINLQNFLTTQSPSVRSLAVPTIIEELEDEEERDQRQMIKEAFAGDDVIRDFLKEKREAVEASKPKDVDLTLPGWGEWGGVGLKPSAKKRRQFLIKAPEGPPRKDKNLPNVIISEKRNIHAAAHQVQVLPYPFTHHRQFERTIQTPIGSTWNTQRAFQKLTTPKVVTKPGHIIKPIKAEDVGYQSSSRSDLPVIQRNPKRITTRHNKEEKL
partner: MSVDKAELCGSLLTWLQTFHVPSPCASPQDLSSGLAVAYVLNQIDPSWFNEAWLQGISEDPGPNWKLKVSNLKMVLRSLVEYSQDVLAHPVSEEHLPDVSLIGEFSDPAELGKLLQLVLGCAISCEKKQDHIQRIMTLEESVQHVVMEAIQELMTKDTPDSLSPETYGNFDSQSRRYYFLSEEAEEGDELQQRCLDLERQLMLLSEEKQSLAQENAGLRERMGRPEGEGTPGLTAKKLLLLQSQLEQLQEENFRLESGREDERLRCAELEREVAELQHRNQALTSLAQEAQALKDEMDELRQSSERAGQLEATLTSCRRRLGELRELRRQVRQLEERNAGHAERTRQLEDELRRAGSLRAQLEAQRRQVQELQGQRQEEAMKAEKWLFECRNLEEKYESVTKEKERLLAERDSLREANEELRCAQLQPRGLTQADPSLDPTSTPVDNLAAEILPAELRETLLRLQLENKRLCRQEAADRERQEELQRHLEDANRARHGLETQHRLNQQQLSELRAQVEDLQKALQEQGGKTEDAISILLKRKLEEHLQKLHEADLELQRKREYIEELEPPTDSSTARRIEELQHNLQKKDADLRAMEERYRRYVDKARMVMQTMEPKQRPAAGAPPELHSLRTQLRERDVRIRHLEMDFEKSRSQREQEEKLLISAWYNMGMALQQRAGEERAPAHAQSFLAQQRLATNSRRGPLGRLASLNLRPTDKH
B2: Zinc finger CCHC domain-containing protein 10 (Homo sapiens), Q8TBK6 (parent)
chain: MATPMHRLIARRQAFDTELQPVKTFWILIQPSIVISEANKQHVRCQKCLEFGHWTYECTGKRKYLHRPSRTAELKKALKEKENRLLLQQSIGETNVERKAKKKRSKSVTSSSSSSSDSSASDSSSESEETSTSSSSEDSDTDESSSSSSSSASSTTSSSSSDSDSDSSSSSSSSTSTDSSSDDEPPKKKKKK
partner: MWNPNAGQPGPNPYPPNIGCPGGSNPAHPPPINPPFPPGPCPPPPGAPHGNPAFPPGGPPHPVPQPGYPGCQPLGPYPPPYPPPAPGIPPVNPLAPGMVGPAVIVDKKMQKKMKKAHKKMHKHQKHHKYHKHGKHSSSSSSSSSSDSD
B3: KAT8 regulatory NSL complex subunit 1 (Homo sapiens), Q7Z3B3 (parent)
chain: MAAMAPALTDAAAEAHHIRFKLAPPSSTLSPGSAENNGNANILIAANGTKRKAIAAEDPSLDFRNNPTKEDLGKLQPLVASYLCSDVTSVPSKESLKLQGVFSKQTVLKSHPLLSQSYELRAELLGRQPVLEFSLENLRTMNTSGQTALPQAPVNGLAKKLTKSSTHSDHDNSTSLNGGKRALTSSALHGGEMGGSESGDLKGGMTNCTLPHRSLDVEHTTLYSNNSTANKSSVNSMEQPALQGSSRLSPGTDSSSNLGGVKLEGKKSPLSSILFSALDSDTRITALLRRQADIESRARRLQKRLQVVQAKQVERHIQHQLGGFLEKTLSKLPNLESLRPRSQLMLTRKAEAALRKAASETTTSEGLSNFLKSNSISEELERFTASGIANLRCSEQAFDSDVTDSSSGGESDIEEEELTRADPEQRHVPLRRRSEWKWAADRAAIVSRWNWLQAHVSDLEYRIRQQTDIYKQIRANKGLIVLGEVPPPEHTTDLFLPLSSEVKTDHGTDKLIESVSQPLENHGAPIIGHISESLSTKSCGALRPVNGVINTLQPVLADHIPGDSSDAEEQLHKKQRLNLVSSSSDGTCVAARTRPVLSCKKRRLVRPNSIVPLSKKVHRNSTIRPGCDVNPSCALCGSGSINTMPPEIHYEAPLLERLSQLDSCVHPVLAFPDDVPTSLHFQSMLKSQWQNKPFDKIKPPKKLSLKHRAPMPGSLPDSARKDRHKLVSSFLTTAKLSHHQTRPDRTHRQHLDDVGAVPMVERVTAPKAERLLNPPPPVHDPNHSKMRLRDHSSERSEVLKHHTDMSSSSYLAATHHPPHSPLVRQLSTSSDSPAPASSSSQVTASTSQQPVRRRRGESSFDINNIVIPMSVAATTRVEKLQYKEILTPSWREVDLQSLKGSPDEENEEIEDLSDAAFAALHAKCEEMERARWLWTTSVPPQRRGSRSYRSSDGRTTPQLGSANPSTPQPASPDVSSSHSLSEYSHGQSPRSPISPELHSAPLTPVARDTPRHLASEDTRCSTPELGLDEQSVQPWERRTFPLAHSPQAECEDQLDAQERAARCTRRTSGSKTGRETEAAPTSPPIVPLKSRHLVAAATAQRPTHR
partner: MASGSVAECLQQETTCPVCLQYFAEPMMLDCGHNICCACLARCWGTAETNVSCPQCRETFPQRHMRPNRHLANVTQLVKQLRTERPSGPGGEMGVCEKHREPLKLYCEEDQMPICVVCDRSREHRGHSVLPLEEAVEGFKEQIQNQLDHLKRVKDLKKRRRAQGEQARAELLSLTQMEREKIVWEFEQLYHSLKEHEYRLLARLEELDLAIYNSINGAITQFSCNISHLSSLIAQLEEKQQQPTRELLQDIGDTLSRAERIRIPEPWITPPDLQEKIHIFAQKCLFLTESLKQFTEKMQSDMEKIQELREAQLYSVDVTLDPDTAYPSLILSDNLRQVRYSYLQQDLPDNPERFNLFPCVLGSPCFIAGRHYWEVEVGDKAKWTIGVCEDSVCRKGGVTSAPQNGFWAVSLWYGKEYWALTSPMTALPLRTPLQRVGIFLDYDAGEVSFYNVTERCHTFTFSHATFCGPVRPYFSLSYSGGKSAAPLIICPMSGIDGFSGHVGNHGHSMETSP
B4: Notch homolog 2 N-terminal-like protein A (Homo sapiens), Q7Z3S9 (parent)
chain: MCVTYHNGTGYCKCPEGFLGEYCQHRDPCEKNRCQNGGTCVAQAMLGKATCRCASGFTGEDCQYSTSHPCFVSRPCLNGGTCHMLSRDTYECTCQVGFTGKECQWTDACLSHPCANGSTCTTVANQFSCKCLTGFTGQKCETDVNECDIPGHCQHGGTCLNLPGSYQCQCLQGFTGQYCDSLYVPCAPSPCVNGGTCRQTGDFTFECNCLPETVRRGTELWERDREVWNGKEHDEN
partner: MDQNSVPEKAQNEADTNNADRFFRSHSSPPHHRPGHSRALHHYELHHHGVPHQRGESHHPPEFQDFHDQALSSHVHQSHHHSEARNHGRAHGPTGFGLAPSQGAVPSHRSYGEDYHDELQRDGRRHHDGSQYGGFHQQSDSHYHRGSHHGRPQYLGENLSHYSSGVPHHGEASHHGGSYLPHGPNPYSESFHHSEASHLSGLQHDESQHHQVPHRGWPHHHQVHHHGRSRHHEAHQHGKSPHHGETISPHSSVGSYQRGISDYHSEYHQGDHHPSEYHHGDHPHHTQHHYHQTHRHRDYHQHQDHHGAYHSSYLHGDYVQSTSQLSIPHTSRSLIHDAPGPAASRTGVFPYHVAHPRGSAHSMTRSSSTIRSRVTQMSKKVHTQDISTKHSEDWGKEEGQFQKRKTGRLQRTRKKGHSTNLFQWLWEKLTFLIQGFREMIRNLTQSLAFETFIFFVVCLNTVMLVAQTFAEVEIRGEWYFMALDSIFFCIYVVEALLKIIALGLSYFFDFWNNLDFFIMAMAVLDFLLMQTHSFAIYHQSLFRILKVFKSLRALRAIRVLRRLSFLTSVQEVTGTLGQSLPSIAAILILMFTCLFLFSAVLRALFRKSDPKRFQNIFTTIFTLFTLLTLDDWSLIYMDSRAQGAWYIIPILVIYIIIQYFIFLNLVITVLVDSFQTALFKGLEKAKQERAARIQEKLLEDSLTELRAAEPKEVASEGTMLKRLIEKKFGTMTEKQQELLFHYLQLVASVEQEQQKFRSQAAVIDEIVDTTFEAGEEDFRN
B5: Hyaluronan mediated motility receptor (Homo sapiens), O75330 (parent)
chain: MSFPKAPLKRFNDPSGCAPSPGAYDVKTLEVLKGPVSFQKSQRFKQQKESKQNLNVDKDTTLPASARKVKSSESKESQKNDKDLKILEKEIRVLLQERGAQDRRIQDLETELEKMEARLNAALREKTSLSANNATLEKQLIELTRTNELLKSKFSENGNQKNLRILSLELMKLRNKRETKMRGMMAKQEGMEMKLQVTQRSLEESQGKIAQLEGKLVSIEKEKIDEKSETEKLLEYIEEISCASDQVEKYKLDIAQLEENLKEKNDEILSLKQSLEENIVILSKQVEDLNVKCQLLEKEKEDHVNRNREHNENLNAEMQNLKQKFILEQQEREKLQQKELQIDSLLQQEKELSSSLHQKLCSFQEEMVKEKNLFEEELKQTLDELDKLQQKEEQAERLVKQLEEEAKSRAEELKLLEEKLKGKEAELEKSSAAHTQATLLLQEKYDSMVQSLEDVTAQFESYKALTASEIEDLKLENSSLQEKAAKAGKNAEDVQHQILATESSNQEYVRMLLDLQTKSALKETEIKEITVSFLQKITDLQNQLKQQEEDFRKQLEDEEGRKAEKENTTAELTEEINKWRLLYEELYNKTKPFQLQLDAFEVEKQALLNEHGAAQEQLNKIRDSYAKLLGHQNLKQKIKHVVKLKDENSQLKSEVSKLRCQLAKKKQSETKLQEELNKVLGIKHFDPSKAFHHESKENFALKTPLKEGNTNCYRAPMECQESWK
B6: Germ cell-less protein-like 1 (Homo sapiens), Q96IK5 (parent)
chain: MGSLSSRVLRQPRPALAQQAQGARAGGSARRPDTGDDAAGHGFCYCAGSHKRKRSSGSFCYCHPDSETDEDEEEGDEQQRLLNTPRRKKLKSTSKYIYQTLFLNGENSDIKICALGEEWSLHKIYLCQSGYFSSMFSGSWKESSMNIIELEIPDQNIDVEALQVAFGSLYRDDVLIKPSRVVAILAAACLLQLDGLIQQCGETMKETVNVKTVCGYYTSAGTYGLDSVKKKCLEWLLNNLMTHQNVELFKELSINVMKQLIGSSNLFVMQVEMDIYTALKKWMFLQLVPSWNGSLKQLLTETDVWFSKQRKDFEGMAFLETEQGKPFVSVFRHLRLQYIISDLASARIIEQDAVVPSEWLSSVYKQQWFAMLRAEQDSEVGPQEINKEELEGNSMRCGRKLAKDGEYCWRWTGFNFGFDLLVTYTNRYIIFKRNTLNQPCSGSVSLQPRRSIAFRLRLASFDSSGKLICSRTTGYQILTLEKDQEQVVMNLDSRLLIFPLYICCNFLYISPEKKN
partner: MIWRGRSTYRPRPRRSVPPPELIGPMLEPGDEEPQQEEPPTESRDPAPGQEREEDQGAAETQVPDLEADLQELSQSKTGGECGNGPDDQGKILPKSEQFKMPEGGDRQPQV

Variants of: B1
Conditions: with hook2_human HOOK2, Q96ED9

Variant	effect of a mutation on the interaction
V109D	with no effect

Variants of: B2
Conditions: with prr13_human PRR13, Q9NZ81

Variant	effect of a mutation on the interaction
S153P	with no effect

Variants of: B3
Conditions: with tri27_human TRIM27, P14373

Variant	effect of a mutation on the interaction
K104T	with no effect
N225D	with no effect

Variants of: B4
Conditions: with ctsr1_human CATSPER1, Q8NEC5

Variant	effect of a mutation on the interaction
A115T	with no effect
R74Q	with no effect

Variants of: B5
Conditions: with morn4_human MORN4, Q8NDC4
Sequence of morn4_human MORN4, Q8NDC4 (Q8NDC4 whole entry): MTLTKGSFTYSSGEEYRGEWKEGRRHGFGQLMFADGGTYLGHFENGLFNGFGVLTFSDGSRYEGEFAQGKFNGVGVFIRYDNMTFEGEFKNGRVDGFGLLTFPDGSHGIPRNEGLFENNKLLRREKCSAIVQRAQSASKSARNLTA

Variant	effect of a mutation on the interaction
V368A	with no effect
S468G	with no effect

Variants of: B6
Conditions: with xage3_human XAGE3, Q8WTP9

Variant	effect of a mutation on the interaction
I340V	with no effect
E77K	with no effect
K123R	with no effect
